Test results as given in patent publication US20260250318A1, “COMPOSITIONS AND METHODS FOR CROSSING THE BLOOD BRAIN BARRIER” (VOYAGER THERAPEUTICS, INC., priority 2022, published 2026).

How the values were obtained:
[1] = molecular target: T1, human ALPL expressed on cells (alkaline phosphatase tissue-nonspecific isozyme, NM_000478.4) (human, UniProt P05186 18-501); experiment: cell-based or functional assay
T1 sequence: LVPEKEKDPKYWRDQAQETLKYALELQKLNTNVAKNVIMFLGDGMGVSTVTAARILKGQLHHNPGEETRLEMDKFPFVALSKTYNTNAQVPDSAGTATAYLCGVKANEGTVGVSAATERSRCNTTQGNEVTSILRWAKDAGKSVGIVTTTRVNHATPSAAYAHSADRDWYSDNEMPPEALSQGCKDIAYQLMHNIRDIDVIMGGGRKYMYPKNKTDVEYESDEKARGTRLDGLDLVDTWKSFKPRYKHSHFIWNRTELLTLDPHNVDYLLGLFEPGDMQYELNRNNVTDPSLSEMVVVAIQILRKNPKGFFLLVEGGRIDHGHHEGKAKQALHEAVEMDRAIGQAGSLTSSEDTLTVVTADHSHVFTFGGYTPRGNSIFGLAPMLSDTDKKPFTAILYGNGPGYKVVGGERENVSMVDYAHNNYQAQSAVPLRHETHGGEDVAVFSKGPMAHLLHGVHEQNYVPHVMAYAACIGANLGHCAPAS

[2] = molecular target: T2, murine ALPL ortholog expressed on HEK 293T cells (NM_001287172.1) (mouse, UniProt P09242 18-501); experiment: cell-based or functional assay
T2 sequence: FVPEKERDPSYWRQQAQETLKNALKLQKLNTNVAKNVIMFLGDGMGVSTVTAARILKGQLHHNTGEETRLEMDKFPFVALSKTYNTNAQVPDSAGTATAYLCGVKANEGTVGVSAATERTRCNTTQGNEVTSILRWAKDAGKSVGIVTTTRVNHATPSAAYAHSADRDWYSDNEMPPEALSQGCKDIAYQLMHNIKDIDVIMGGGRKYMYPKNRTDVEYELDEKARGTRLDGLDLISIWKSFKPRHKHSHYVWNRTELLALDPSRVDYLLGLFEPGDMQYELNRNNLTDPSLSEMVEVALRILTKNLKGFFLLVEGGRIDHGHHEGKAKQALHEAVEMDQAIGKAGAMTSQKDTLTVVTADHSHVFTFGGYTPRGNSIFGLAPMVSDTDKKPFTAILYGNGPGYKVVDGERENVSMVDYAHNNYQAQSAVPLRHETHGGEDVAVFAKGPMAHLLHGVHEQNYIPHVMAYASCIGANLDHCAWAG

[3] = molecular target: T3, His-tagged ALPL (recombinant, soluble; SPR, BLI and ELISA of Examples 8 and 13) (UniProt P05186 18-502); experiment: SPR (Biacore 8K), TTM-002 immobilized on CM5 chip at approximately 6300RU, His-tagged ALPL as analyte; value in the text differs from Table 41
T3 construct: also called ALPL receptor; alkaline phosphatase tissue-nonspecific isozyme
T3 sequence: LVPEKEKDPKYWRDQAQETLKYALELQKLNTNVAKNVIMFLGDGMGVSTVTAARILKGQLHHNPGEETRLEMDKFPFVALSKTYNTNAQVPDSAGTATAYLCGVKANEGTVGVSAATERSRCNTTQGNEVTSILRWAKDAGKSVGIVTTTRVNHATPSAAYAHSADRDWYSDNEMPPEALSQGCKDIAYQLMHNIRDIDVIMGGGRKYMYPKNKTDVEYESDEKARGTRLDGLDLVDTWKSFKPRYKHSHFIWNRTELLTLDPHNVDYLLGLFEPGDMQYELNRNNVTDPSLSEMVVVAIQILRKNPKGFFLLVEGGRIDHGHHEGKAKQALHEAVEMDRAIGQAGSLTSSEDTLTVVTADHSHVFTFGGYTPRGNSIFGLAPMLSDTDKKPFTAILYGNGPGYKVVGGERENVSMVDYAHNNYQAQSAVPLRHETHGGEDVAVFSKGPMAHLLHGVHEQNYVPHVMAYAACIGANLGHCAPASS

[4] = molecular target: T1, human ALPL expressed on cells (alkaline …); experiment: cell-based or functional assay; remark: listed apart in the source
[5] = molecular target: T2, murine ALPL ortholog expressed on HEK …; experiment: cell-based or functional assay; remark: listed apart in the source
[6] = molecular target: T4, cynomolgus ALPL ortholog expressed on HEK 293T cells (XM_005544525) (Macaca fascicularis); experiment: cell-based or functional assay
T4 chain: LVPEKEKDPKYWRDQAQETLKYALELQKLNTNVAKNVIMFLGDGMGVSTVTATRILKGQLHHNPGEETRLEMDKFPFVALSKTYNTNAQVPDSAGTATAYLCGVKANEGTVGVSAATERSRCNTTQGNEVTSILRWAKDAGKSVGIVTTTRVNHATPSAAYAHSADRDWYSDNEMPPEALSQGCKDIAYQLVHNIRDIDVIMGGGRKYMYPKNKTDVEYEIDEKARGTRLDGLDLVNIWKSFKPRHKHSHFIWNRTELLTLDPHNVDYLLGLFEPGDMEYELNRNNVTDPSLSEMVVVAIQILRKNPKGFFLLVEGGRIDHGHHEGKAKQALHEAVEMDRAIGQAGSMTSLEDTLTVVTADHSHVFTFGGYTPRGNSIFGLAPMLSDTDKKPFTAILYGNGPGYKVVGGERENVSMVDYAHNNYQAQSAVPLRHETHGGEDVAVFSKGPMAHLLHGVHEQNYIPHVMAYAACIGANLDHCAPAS

[7] = molecular target: T1, human ALPL expressed on cells (alkaline …); experiment: binding/internalization: AAV incubated 2 or 3 h with ALPL transfected HEK 293T cells, washed, viral genomes quantified
[8] = molecular target: T5, ALPL (Homo sapiens, UniProt P05186); experiment: Transcytosis assay of AAV particles in MDCK cells engineered to overexpress ALPL; type: cell-based; parameters: expressed in transfected cells; host or cells: MDCK (Madin-Darby Canine Kidney) cells; settings: qPCR of bottom chamber
T5 sequence (P05186 18-501): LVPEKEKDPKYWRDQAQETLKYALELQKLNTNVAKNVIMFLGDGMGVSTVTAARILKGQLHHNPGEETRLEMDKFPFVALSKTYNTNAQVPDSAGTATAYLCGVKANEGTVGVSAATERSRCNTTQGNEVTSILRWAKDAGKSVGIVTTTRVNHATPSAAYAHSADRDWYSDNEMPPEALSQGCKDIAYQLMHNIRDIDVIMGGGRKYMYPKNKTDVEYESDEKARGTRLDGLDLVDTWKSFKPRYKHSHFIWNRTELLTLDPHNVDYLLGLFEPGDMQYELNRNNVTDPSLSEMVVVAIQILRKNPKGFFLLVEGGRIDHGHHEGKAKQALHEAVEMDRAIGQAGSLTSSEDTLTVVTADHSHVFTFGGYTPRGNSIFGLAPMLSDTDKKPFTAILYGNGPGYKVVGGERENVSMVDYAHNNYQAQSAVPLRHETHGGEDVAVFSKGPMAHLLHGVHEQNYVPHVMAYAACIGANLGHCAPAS

B1: TTM-002 capsid variant (AAV particle comprising the TTM-002 AAV9 capsid variant) (other)
chain 1: MAADGYLPDWLEDNLSEGIREWWALKPGAPQPKANQQHQDNARGLVLPGYKYLGPGNGLDKGEPVNAADAAALEHDKAYDQQLKAGDNPYLKYNHADAEFQERLKEDTSFGGNLGRAVFQAKKRLLEPLGLVEEAAKTAPGKKRPVEQSPQEPDSSAGIGKSGAQPAKKRLNFGQTGDTESVPDPQPIGEPPAAPSGVGSLTMASGGGAPVADNNEGADGVGSSSGNWHCDSQWLGDRVITTSTRTWALPTYNNHLYKQISNSTSGGSSNDNAYFGYSTPWGYFDFNRFHCHFSPRDWQRLINNNWGFRPKRLNFKLFNIQVKEVTDNNGVKTIANNLTSTVQVFTDSDYQLPYVLGSAHEGCLPPFPADVFMIPQYGYLTLNDGSQAVGRSSFYCLEYFPSQMLRTGNNFQFSYEFENVPFHSSYAHSQSLDRLMNPLIDQYLYYLSKTINGHDSPHKSGQNQQTLKFSVAGPSNMAVQGRNYIPGPSYRQQRVSTTVTQNNNSEFAWPGASSWALNGRNSLMNPGPAMASHKEGEDRFFPLSGSLIFGKQGTGRDNVDADKVMITNEEEIKTTNPVATESYGQVATNHQSAQAQAQTGWVQNQGILPGMVWQDRDVYLQGPIWAKIPHTDGNFHPSPLMGGFGMKHPPPQILIKNTPVPADPPTAFNKDKLNSFITQYSTGQVSVEIEWELQKENSKRWNPEIQYTSNYYKSNNVEFAVNTEGVYSEPRPIGTRYLTRNL
chain 2: TAPGKKRPVEQSPQEPDSSAGIGKSGAQPAKKRLNFGQTGDTESVPDPQPIGEPPAAPSGVGSLTMASGGGAPVADNNEGADGVGSSSGNWHCDSQWLGDRVITTSTRTWALPTYNNHLYKQISNSTSGGSSNDNAYFGYSTPWGYFDFNRFHCHFSPRDWQRLINNNWGFRPKRLNFKLFNIQVKEVTDNNGVKTIANNLTSTVQVFTDSDYQLPYVLGSAHEGCLPPFPADVFMIPQYGYLTLNDGSQAVGRSSFYCLEYFPSQMLRTGNNFQFSYEFENVPFHSSYAHSQSLDRLMNPLIDQYLYYLSKTINGHDSPHKSGQNQQTLKFSVAGPSNMAVQGRNYIPGPSYRQQRVSTTVTQNNNSEFAWPGASSWALNGRNSLMNPGPAMASHKEGEDRFFPLSGSLIFGKQGTGRDNVDADKVMITNEEEIKTTNPVATESYGQVATNHQSAQAQAQTGWVQNQGILPGMVWQDRDVYLQGPIWAKIPHTDGNFHPSPLMGGFGMKHPPPQILIKNTPVPADPPTAFNKDKLNSFITQYSTGQVSVEIEWELQKENSKRWNPEIQYTSNYYKSNNVEFAVNTEGVYSEPRPIGTRYLTRNL
chain 3: MASGGGAPVADNNEGADGVGSSSGNWHCDSQWLGDRVITTSTRTWALPTYNNHLYKQISNSTSGGSSNDNAYFGYSTPWGYFDFNRFHCHFSPRDWQRLINNNWGFRPKRLNFKLFNIQVKEVTDNNGVKTIANNLTSTVQVFTDSDYQLPYVLGSAHEGCLPPFPADVFMIPQYGYLTLNDGSQAVGRSSFYCLEYFPSQMLRTGNNFQFSYEFENVPFHSSYAHSQSLDRLMNPLIDQYLYYLSKTINGHDSPHKSGQNQQTLKFSVAGPSNMAVQGRNYIPGPSYRQQRVSTTVTQNNNSEFAWPGASSWALNGRNSLMNPGPAMASHKEGEDRFFPLSGSLIFGKQGTGRDNVDADKVMITNEEEIKTTNPVATESYGQVATNHQSAQAQAQTGWVQNQGILPGMVWQDRDVYLQGPIWAKIPHTDGNFHPSPLMGGFGMKHPPPQILIKNTPVPADPPTAFNKDKLNSFITQYSTGQVSVEIEWELQKENSKRWNPEIQYTSNYYKSNNVEFAVNTEGVYSEPRPIGTRYLTRNL
In the case of B1, the “fold change in luciferase activity relative to the pCMV6 control cells (cells transfected with human ALPL protein)” value [1] is reported as 24 fold, the “fold change in luciferase activity relative to the pCMV6 control cells (cells transfected with murine ALPL protein)” value [2] is reported as 24 fold and the kon [3] is reported as 32000 M⁻¹ s⁻¹. For the same molecule, the “fold change in luciferase activity relative to the pCMV6 control cells (Human ALPL)” value [4] was 60.3 fold, the “fold change in luciferase activity relative to the pCMV6 control cells (Murine ALPL)” value [5] was 57.2 fold and the “fold change in luciferase activity relative to the pCMV6 control cells (Cynomolgus ALPL)” value [6] was 81.5 fold. For the same molecule, the “fold change in viral gene expression (2^-ΔΔCT) relative to pCMV6 transfected cells” value [7] was 5.92 fold.

B2: TTM-002: AAV9 capsid variant comprising HDSPHK (SEQ ID NO: 2) in loop IV (protein)
chain 1: MAADGYLPDWLEDNLSEGIREWWALKPGAPQPKANQQHQDNARGLVLPGYKYLGPGNGLDKGEPVNAADAAALEHDKAYDQQLKAGDNPYLKYNHADAEFQERLKEDTSFGGNLGRAVFQAKKRLLEPLGLVEEAAKTAPGKKRPVEQSPQEPDSSAGIGKSGAQPAKKRLNFGQTGDTESVPDPQPIGEPPAAPSGVGSLTMASGGGAPVADNNEGADGVGSSSGNWHCDSQWLGDRVITTSTRTWALPTYNNHLYKQISNSTSGGSSNDNAYFGYSTPWGYFDFNRFHCHFSPRDWQRLINNNWGFRPKRLNFKLFNIQVKEVTDNNGVKTIANNLTSTVQVFTDSDYQLPYVLGSAHEGCLPPFPADVFMIPQYGYLTLNDGSQAVGRSSFYCLEYFPSQMLRTGNNFQFSYEFENVPFHSSYAHSQSLDRLMNPLIDQYLYYLSKTINGHDSPHKSGQNQQTLKFSVAGPSNMAVQGRNYIPGPSYRQQRVSTTVTQNNNSEFAWPGASSWALNGRNSLMNPGPAMASHKEGEDRFFPLSGSLIFGKQGTGRDNVDADKVMITNEEEIKTTNPVATESYGQVATNHQSAQAQAQTGWVQNQGILPGMVWQDRDVYLQGPIWAKIPHTDGNFHPSPLMGGFGMKHPPPQILIKNTPVPADPPTAFNKDKLNSFITQYSTGQVSVEIEWELQKENSKRWNPEIQYTSNYYKSNNVEFAVNTEGVYSEPRPIGTRYLTRNL
chain 2: GHDSPHKSGQNQQT
B2 was tested, and the “transcytosis in MDCK cells that did not express ALPL” value [8] was “No transcytosis was observed”.
